Measurements from paper doi:10.1101/2025.10.13.682046 (bioRxiv, 2025).

B1: GST-CIP2A(1-330) (domain or fragment)
chain: not shown
B2: CIP2A(331-560) (domain or fragment)
chain: not shown
B3: CIP2A(1-330), prey of the GST pull-down (domain or fragment)
chain: not shown

Experiments:
CIP2A(1-560)-V5 = CIP2A(1-560)-V5 (human, UniProt Q8TCG1 1-560); test: pull-down
GST-CIP2A(1-330) = biological target: B1; test: pull-down

Binder	binding result (CIP2A(1-560)-V5)	binding result (GST-CIP2A(1-330))
B1	binds	
B2	binds	
B3		binds
